Substitutions are numbered along the chain they refer to.
B1: ADI-24858 (antibody, V domains shown)
VH: EVQLLESGGGLVKPGGSLRLSCAASGFTFSSYSMNWVRQAPGKGLEWVSSISSSSSYIYYADSVKGRFTISRDNAKNSLYLQMNSLRAEDTAVYYCARGGYSYGYSFDYWGQGTLVTVSS
VL: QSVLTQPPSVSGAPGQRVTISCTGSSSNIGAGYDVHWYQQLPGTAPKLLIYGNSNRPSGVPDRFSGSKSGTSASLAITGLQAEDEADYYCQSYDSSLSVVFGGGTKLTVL
notes: full-length IgG
B2: ADI-24795 (antibody, V domains shown)
VH: EVQLVESGGGLVKPGGSLRLSCAASGFTFSSYSMNWVRQAPGKGLEWVSSISSSSSYIYYADSVKGRFTISRDNAKNSLYLQMNSLRAEDTAVYYCARVGYSSSSGAFDYWGQGTLVTVSS
VL: QSVLTQPPSVSGAPGQRVTISCTGSSSNIGAGYDVHWYQQLPGTAPKLLIYGNSNRPSGVPDRFSGSKSGTSASLAITGLQAEDEADYYCQSYDSSLSGSVFGGGTKVTVL
notes: full-length IgG; also called Ab 363
B3: ADI-24800 (antibody, V domains shown)
VH: EVQLLESGGGLVKPGGSLRLSCAASGFTFSSYSMNWVRQAPGKGLEWVSSISSSSSYIYYADSVKGRFTISRDNAKNSLYLQMNSLRAEDTAVYYCARVRGGYSYGYGMDVWGQGTTVTVSS
VL: B2 VL with L4V, Y33F, R63Q, S100V, V108L
notes: full-length IgG
B4: ADI-19440 (antibody, V domains shown)
VH: EVQLVESGGGLVQPGGSLRLSCAASGFTFSSYSMNWVRQAPGKGLEWVSYISSSSSTIYYADSVKGRFTISRDNAKNSLYLQMNSLRAEDTAVYYCAREGYSGSYGYYFDYWGQGTLVTVSS
VL: B2 VL with G104T, V108L
notes: full-length IgG
B5: ADI-24845 (antibody, V domains shown)
VH: EVQLVESGGGLVKPGGSLRLSCAASGFTFSSYSMNWVRQAPGKGLEWVSSISSSSSYIYYADSVKGRFTISRDNAKNSLYLQMNSLRAEDTAVYYCARDYCSGGSCYLAAFDIWGQGTTVTVSS
VL: QPVLTQPASVSGSPGQSITISCTGTSSDVGGYNYVSWYQQHPGKAPKLMIYEVSNRPSGVSNRFSGSKSGNTASLTISGLQAEDEADYYCSSYTSSSTPVVFGGGTKLTVL
notes: full-length IgG
B6: ADI-25598 (antibody, V domains shown)
VH: QVQLQESGPGLVKPSETLSLTCTVSPPSISSSSYYWGWIRQPPGKGLEWIGSIYYSGSTYYNPSLKSRVTISVDTSKNQFSLKLSSVTAADTAVYYCARPDSSGAFDIWGQGTMVTVSS
VL: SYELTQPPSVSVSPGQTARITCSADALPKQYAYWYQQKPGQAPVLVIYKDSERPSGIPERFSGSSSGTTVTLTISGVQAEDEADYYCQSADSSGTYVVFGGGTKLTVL
notes: full-length IgG
B7: ADI-25468 (antibody, V domains shown)
VH: QVQLVQSGAEVKKPGESLKISCKGSGYSFTSYWIGWVRQMPGKGLEWMGIIYPGDSDTRYSPSFQGQVTISADKSISTAYLQWSSLKASDTAMYYCARHVGQVYCSSTSCYTSREYYFDYWGQGTLVTVSS
VL: not shown
notes: full-length IgG
B8: ADI-24823 (antibody, V domains shown)
VH: EVQLLESGGGLVKPGGSLRLSCAASGFTFSSYSMNWVRQAPGKGLEWVSSISSSSSYIYYADSVKGRFTISRDNAKNSLYLQMNSLRAEDTAVYYCAREGDYYGSGRPFDYWGQGTLVTVSS
VL: QSVVTQPPSVSGAPGQRVTISCTGSSSNIGAGYDVHWYQQLPGTAPKLLIYGNSNRPSGVPDRFSGSKSGTSASLAITGLQAEDEADYYCQSYDSSLSVVFGGGTKLTVL
notes: full-length IgG
B9: ADI-25556 (antibody, V domains shown)
VH: QVQLVQSGGGLVKPGGSLRLSCAASGFTFSSYSMNWVRQAPGKGLEWVSSISSSSSYIYYADSVKGRFTISRDNAKNSLYLQMNSLRAEDTAVYYCARQRGGIAVAGTYFDLWGRGTLVTVSS
VL: QSVLTQPPSVSGAPGQRVTISCTGSSSNIGAGYDVHWYQQLPGTAPKLLIYGNSNRPSGVPDRFSGSKSGTSASLAITGLQAEDEADYYCQSYDSTVVFGGGTKVTVL
notes: full-length IgG; also called Ab 450

Target: T1, RSV postfusion F (postF), subtype A (respiratory syncytial virus subtype A, UniProt P03420 26-513)
T1 construct: also called Postfusion subtype A; F deltaFP
Assay: BLI

Binder	binding result
B1	no binding
B2	no binding
B3	no binding
B4	no binding
B5	no binding
B6	no binding
B7	no binding
B8	no binding
B9	no binding

Target: T2, RSV prefusion F (preF), subtype B (respiratory syncytial virus subtype B)
T2 construct: also called Prefusion subtype B
Assay: BLI, IgG

Binder	Kd [nM]
B1	26.3
B2	34.2
B3	51.4
B4	14.3
B5	36.7
B8	6.03
B9	42

From patent publication US20260258115A1 (MAPP BIOPHARMACEUTICAL, published 2026)
